# Laboratory results as given in patent US20090099029A1, “Methods and substrates for conducting assays” (Invitrogen Corporation, priority 2005, published 2009).
# Residue numbers refer to the chain shown, from its start.
# B1: MAP2K3(MEK3) (protein)
# chain: MSKPPAPNPTPPRNLDSRTFITIGDRNFEVEADDLVTISELGRGAYGVVEKVRHAQSGTIMAVKRIRATVNSQEQKRLLMDLDINMRTVDCFYTVTFYGALFREGDVWICMELMDTSLDKFYRKVLDKNMTIPEDILGEIAVSIVRALEHLHSKLSVIHRDVKPSNVLINKEGHVKMCDFGISGYLVDSVAKTMDAGCKPYMAPERINPELNQKGYNVKSDVWSLGITMIEMAILRFPYESWGTPFQQLKQVVEEPSPQLPADRFSPEFVDFTAQCLRKNPAERMSYLELMEHPFFTLHKTKKTDIAAFVKEILGEDS
# modifications: left off: a dimerising Fc or GST
# B2: EPHA3 (protein)
# chain: RFCGYKSKHGADEKRLHFGNGHLKLPGLRTYVDPHTYEDPTQAVHEFAKELDATNISIDKVVGAGEFGEVCSGRLKLPSKKEISVAIKTLKVGYTEKQRRDFLGEASIMGQFDHPNIIRLEGVVTKSKPVMIVTEYMENGSLDSFLRKHDAQFTVIQLVGMLRGIASGMKYLSDMGYVHRDLAARNILINSNLVCKVSDFGLSRVLEDDPEAAYTTRGGKIPIRWTSPEAIAYRKFTSASDVWSYGIVLWEVMSYGERPYWEMSNQDVIKAVDEGYRLPPPMDCPAALYQLMLDCWQKDRNNRPKFEQIVSILDKLIRNPGSLKIITSAAARPSNLLLDQSNVDITTFRTTGDWLNGVWTAHCKEIFTGVEYSSCDTIAKISTDDMKKVGVTVVGPQKKIISSIKALETQSKNGPVPV
# modifications: left off: small tags and cut ends
# B3: GRK6 (protein)
# chain: MELENIVANTVLLKAREGGGGNRKGKSKKWRQMLQFPHISQCEELRLSLERDYHSLCERQPIGRLLFREFCATRPELSRCVAFLDGVAEYEVTPDDKRKACGRQLTQNFLSHTGPDLIPEVPRQLVTNCTQRLEQGPCKDLFQELTRLTHEYLSVAPFADYLDSIYFNRFLQWKWLERQPVTKNTFRQYRVLGKGGFGEVCACQVRATGKMYACKKLEKKRIKKRKGEAMALNEKQILEKVNSRFVVSLAYAYETKDALCLVLTLMNGGDLKFHIYHMGQAGFPEARAVFYAAEICCGLEDLHRERIVYRDLKPENILLDDHGHIRISDLGLAVHVPEGQTIKGRVGTVGYMAPEVVKNERYTFSPDWWALGCLLYEMIAGQSPFQQRKKKIKREEVERLVKEVPEEYSERFSPQARSLCSQLLCKDPAERLGCRGGSAREVKEHPLFKKLNFKRLGAGMLEPPFKPDPQAIYCKDVLDIEQFSTVKGVELEPTDQDFYQKFATGSVPIPWQNEMVETECFQELNVFGLDGSVPPDLDWKGQPPAPPKKGLLQRLFSRQDCCGNCSDSEEELPTRL
# modifications: left off: a dimerising Fc or GST
# B4: MAP2K6(MKK6) (protein)
# chain: MSQSKGKKRNPGLKIPKEAFEQPQTSSTPPRDLDSKACISIGNQNFEVKADDLEPIMELGRGAYGVVEKMRHVPSGQIMAVKRIRATVNSQEQKRLLMDLDISMRTVDCPFTVTFYGALFREGDVWICMELMDTSLDKFYKQVIDKGQTIPEDILGKIAVSIVKALEHLHSKLSVIHRDVKPSNVLINALGQVKMCDFGISGYLVDSVAKTIDAGCKPYMAPERINPELNQKGYSVKSDIWSLGITMIELAILRFPYDSWGTPFQQLKQVVEEPSPQLPADKFSAEFVDFTSQCLKKNSKERPTYPELMQHPFFTLHESKGTDVASFVKLILGD
# modifications: left off: small tags and cut ends
# B5: MAP2K6, mutant (protein)
# chain: B4 chain with S207E, T211E
# modifications: left off: small tags and cut ends
# B6: MAP3K11(MLK3) (protein)
# chain: MEPLKSLFLKSPLGSWNGSGSGGGGGGGGGRPEGSPKAAGYANPVWTALFDYEPSGQDELALRKGDRVEVLSRDAAISGDEGWWAGQVGGQVGIFPSNYVSRGGGPPPCEVASFQELRLEEVIGIGGFGKVYRGSWRGELVAVKAARQDPDEDISVTAESVRQEARLFAMLAHPNIIALKAVCLEEPNLCLVMEYAAGGPLSRALAGRRVPPHVLVNWAVQIARGMHYLHCEALVPVIHRDLKSNNILLLQPIESDDMEHKTLKITDFGLAREWHKTTQMSAAGTYAWMAPEVIKASTFSKGSDVWSFGVLLWELLTGEVPYRGIDCLAVAYGVAVNKLTLPIPSTCPEPFAQLMADCWAQDPHRRPDFASILQQLEALEAQVLREMPRDSFHSMQEGWKREIQGLFDELRAKEKELLSREEELTRAAREQRSQAEQLRRREHLLAQWELEVFERELTLLLQQVDRERPHVRRRRGTFKRSKLRARDGGERISMPLDFKHRITVQASPGLDRRRNVFEVGPGDSPTFPRFRAIQLEPAEPGQAWGRQSPRRLEDSSNGERRACWAWGPSSPKPGEAQNGRRRSRMDEATWYLDSDDSSPLGSPSTPPALNGNPPRPSLEPEEPKRPVPAERGSSSGTPKLIQRALLRGTALLASLGLGRDLQPPGGPGRERGESPTTPPTPTPAPCPTEPPPSPLICFSLKTPDSPPTPAPLLLDLGIPVGQRSAKSPRREEEPRGGTVSPPPGTSRSAPGTPGTPRSPPLGLISRPRPSPLRSRIDPWSFVSAGPRPSPLPSPQPAPRRAPWTLFPDSDPFWDSPPANPFQGGPQDCRAQTKDMGAQAPWVPEAGP
# modifications: left off: a dimerising Fc or GST
# B7: MAP3K2(MEKK2) (protein)
# chain: MDDQQALNSIMQDLAVLHKASRPALSLQETRKAKSSSPKKQNDVRVKFEHRGEKRILQFPRPVKLEDLRSKAKIAFGQSMDLHYTNNELVIPLTTQDDLDKAVELLDRSIHMKSLKILLVINGSTQATNLEPLPSLEDLDNTVFGAERKKRLSIIGPTSRDRSSPPPGYIPDELHQVARNGSFTSINSEGEFIPESMDQMLDPLSLSSPENSGSGSCPSLDSPLDGESYPKSRMPRAQSYPDNHQEFSDYDNPIFEKFGKGGTYPRRYHVSYHHQEYNDGRKTFPRARRTQGTSLRSPVSFSPTDHSLSTSSGSSIFTPEYDDSRIRRRGSDIDNPTLTVMDISPPSRSPRAPTNWRLGKLLGQGAFGRVYLCYDVDTGRELAVKQVQFDPDSPETSKEVNALECEIQLLKNLLHERIVQYYGCLRDPQEKTLSIFMEYMPGGSIKDQLKAYGALTENVTRKYTRQILEGVHYLHSNMIVHRDIKGANILRDSTGNVKLGDFGASKRLQTICLSGTGMKSVTGTPYWMSPEVISGEGYGRKADIWSVACTVVEMLTEKPPWAEFEAMAAIFKIATQPTNPKLPPHVSDYTRDFLKRIFVEAKLRPSADELLRHMFVHYH
# modifications: left off: a dimerising Fc or GST
# B8: GRK7 (protein)
# chain: MVDMGALDNLIANTAYLQARKPSDCDSKELQRRRRSLALPGLQGCAELRQKLSLNFHSLCEQQPIGRRLFRDFLATVPTFRKAATFLEDVQNWELAEEGPTKDSALQGLVATCASAPAPGNPQPFLSQAVATKCQAATTEEERVAAVTLAKAEAMAFLQEQPFKDFVTSAFYDKFLQWKLFEMQPVSDKYFTEFRVLGKGGFGEVCAVQVKNTGKMYACKKLDKKRLKKKGGEKMALLEKEILEKVSSPFIVSLAYAFESKTHLCLVMSLMNGGDLKFHIYNVGTRGLDMSRVIFYSAQIACGMLHLHELGIVYRDMKPENVLLDDLGNCRLSDLGLAVEMKGGKPITQRAGTNGYMAPEILMEKVSYSYPVDWFAMGCSIYEMVAGRTPFKDYKEKVSKEDLKQRTLQDEVKFQHDNFTEEAKDICRLFLAKKPEQRLGSREKSDDPRKHHFFKTINFPRLEAGLIEPPFVPDPSVVYAKDIAEIDDFSEVRGVEFDDKDKQFFKNFATGAVPIAWQEEIIETGLFEELNDPNRPTGCEEGNSSKSGVCLLL
# modifications: left off: a dimerising Fc or GST
# B9: IRAK4 (protein)
# chain: MNKPITPSTYVRCLNVGLIRKLSDFIDPQEGWKKLAVAIKKPSGDDRYNQFHIRRFEALLQTGKSPTSELLFDWGTTNCTVGDLVDLLIQNEFFAPASLLLPDAVPKTANTLPSKEAITVQQKQMPFCDKDRTLMTPVQNLEQSYMPPDSSSPENKSLEVSDTRFHSFSFYELKNVTNNFDERPISVGGNKMGEGGFGVVYKGYVNNTTVAVKKLAAMVDITTEELKQQFDQEIKVMAKCQHENLVELLGFSSDGDDLCLVYVYMPNGSLLDRLSCLDGTPPLSWHMRCKIAQGAANGINFLHENHHIHRDIKSANILLDEAFTAKISDFGLARASEKFAQTVMTSRIVGTTAYMAPEALRGEITPKSDIYSFGVVLLEIITGLPAVDEHREPQLLLDIKEEIEDEEKTIEDYIDKKMNDADSTSVEAMYSVASQCLHEKKNKRPDIKKVQQLLQEMTAS
# modifications: left off: small tags and cut ends
# B10: GSK3A (protein)
# chain: MSGGGPSGGGPGGSGRARTSSFAEPGGGGGGGGGGPGGSASGPGGTGGGKASVGAMGGGVGASSSGGGPGGSGGGGSGGPGAGTSFPPPGVKLGRDSGKVTTVVATLGQGPERSQEVAYTDIKVIGNGSFGVVYQARLAETRELVAIKKVLQDKRFKNRELQIMRKLDHCNIVRLRYFFYSSGEKKDELYLNLVLEYVPETVYRVARHFTKAKLTIPILYVKVYMYQLFRSLAYIHSQGVCHRDIKPQNLLVDPDTAVLKLCDFGSAKQLVRGEPNVSYICSRYYRAPELIFGATDYTSSIDVWSAGCVLAELLLGQPIFPGDSGVDQLVEIIKVLGTPTREQIREMNPNYTEFKFPQIKAHPWTKVFKSRTPPEAIALCSSLLEYTPSSRLSPLEACAHSFFDELRCLGTQLPNNRPLPPLFNFSAGELSIQPSLNAILIPPHLRSPAGTTTLTPSSQALTETPTSSDWQSTDATPTLTNSS
# modifications: left off: small tags and cut ends
# Tested on: kinases of Table 6 on Myelin Basic Protein (MBP)
# Assay: Kinase assay using MBP substrate, ProQ Diamond stain (Table 6)
# Type: biochemical
# Conditions: kinase printed on MBP-coated slide; 20 uM ATP, 30° C.; ProQ Diamond Microarray Stain; graded Strong/Weak/Negative
# Method: In this illustrative example, four-well slides were designed with a hydrophobic mask surrounding 4-wells of aldehyde- or epoxy-coated glass (smooth or ES grade; Erie Scientific (Portsmouth, N.H.)). […] Bovine, dephosphorylated, Myelin Basic Protein (MBP) was purchased from Upstate Biotechnology (#13-110). MBP was diluted to 1 mg/ml in PBS, applied to the slide surface, covered with a coverslip, and left overnight at 4° C. to coat the slide with the MBP. Slides were washed 3 times with water and spun dry before printing.
# Kinases were purchased from Panvera (Invitrogen, Carlsbad, Calif.), diluted in printing buffer (50 mM Tris pH 7.5, 25% glyercol, 0.05% TritonX-100, 2 mM DTT) and deposited using a GeneMachine OmniGrid100. Slides were stored at −20° C.
# Reactions were performed following removal of the slide from the freezer. Reaction buffer (20 mM HEPES pH 7.5, 4 mM MgCl2, 2 mM DTT, 20 uM ATP, 5% DMSO) was added with or without inhibitor, a coverslip applied, and the slide placed at 30° C. for the appropriate reaction time. The slide was washed with water to stop the reaction (3 times) and spun dry. ProQ Diamond Microarray Stain (Invitrogen #P33706) was applied, covered with a coverslip, and the slide was incubated in the dark at room temperature for 30 minutes. The slide was destained and washed three times with water, and spun dry.
row,Molecule,MBP Kinase Activity
1,B1,Negative
2,B2,Strong
3,B3,Negative
4,B4,Weak
5,B5,Negative
6,B6,Negative
7,B7,Weak
8,B8,Negative
9,B9,Strong
10,B10,Weak
